Measured values taken from US20070224188A1.

Target: biotin-labeled soluble FcRn
Assay: FcRn ELISA pH 6.0

Substance	FcRn pH6.0 (% of wild type)
anti-CD20 IgG1 I332D (antibody)	78
anti-CD20 IgG1 I332E (antibody)	86
anti-CD20 IgG1 I332F (antibody)	108
anti-CD20 IgG1 I332H (antibody)	129
anti-CD20 IgG1 I332K (antibody)	146
anti-CD20 IgG1 I332L (antibody)	127
anti-CD20 IgG1 I332N (antibody)	92
anti-CD20 IgG1 I332Q (antibody)	98
anti-CD20 IgG1 I332S (antibody)	263
anti-CD20 IgG1 I332Y (antibody)	93
anti-CD20 IgG1 K248F (antibody)	0
anti-CD20 IgG1 K248W (antibody)	30
anti-CD20 IgG1 K326W (antibody)	93
anti-CD20 IgG1 K439E (antibody)	94
anti-CD20 IgG1 K439H (antibody)	99
anti-CD20 IgG1 L235A (antibody)	102
anti-CD20 IgG1 L235E (antibody)	87
anti-CD20 IgG1 L235Q (antibody)	81
anti-CD20 IgG1 L251F (antibody)	64
anti-CD20 IgG1 L251H (antibody)	46
anti-CD20 IgG1 L251W (antibody)	0

Substance	FcRn pH6.0 (% of wild type)
anti-CD20 IgG1 L314I (antibody)	86
anti-CD20 IgG1 L314Y (antibody)	64
anti-CD20 IgG1 L328V (antibody)	101
anti-CD20 IgG1 N315F (antibody)	51
anti-CD20 IgG1 N315K (antibody)	88
anti-CD20 IgG1 N315L (antibody)	103
anti-CD20 IgG1 N315P (antibody)	14
anti-CD20 IgG1 N434F (antibody)	1010
anti-CD20 IgG1 N434G (antibody)	358
anti-CD20 IgG1 P238A (antibody)	90
anti-CD20 IgG1 P238E (antibody)	76
anti-CD20 IgG1 P238L (antibody)	115
anti-CD20 IgG1 P238W (antibody)	87
anti-CD20 IgG1 P245R (antibody)	188
anti-CD20 IgG1 P247A (antibody)	97
anti-CD20 IgG1 P247D (antibody)	54
anti-CD20 IgG1 P247F (antibody)	6
anti-CD20 IgG1 P247G (antibody)	75
anti-CD20 IgG1 P247H (antibody)	35
anti-CD20 IgG1 P247I (antibody)	79
anti-CD20 IgG1 P247N (antibody)	41

Substance	FcRn pH6.0 (% of wild type)
anti-CD20 IgG1 P247R (antibody)	72
anti-CD20 IgG1 P247T (antibody)	75
anti-CD20 IgG1 P247Y (antibody)	7
anti-CD20 IgG1 P257A (antibody)	319
anti-CD20 IgG1 P257I (antibody)	1020
anti-CD20 IgG1 P257S (antibody)	184
anti-CD20 IgG1 P257V (antibody)	447
anti-CD20 IgG1 P343A (antibody)	110
anti-CD20 IgG1 P343E (antibody)	345
anti-CD20 IgG1 P343F (antibody)	89
anti-CD20 IgG1 P343H (antibody)	191
anti-CD20 IgG1 P343I (antibody)	114
anti-CD20 IgG1 P343K (antibody)	232
anti-CD20 IgG1 P343L (antibody)	125
anti-CD20 IgG1 P343Q (antibody)	442
anti-CD20 IgG1 P343S (antibody)	101
anti-CD20 IgG1 P343T (antibody)	126
anti-CD20 IgG1 P343W (antibody)	56
anti-CD20 IgG1 Q311E (antibody)	46

Second part, the substance after the results:

FcRn pH6.0 (% of wild type)	Substance
86	anti-CD20 IgG1 H268K (antibody)
202	anti-CD20 IgG1 H285N (antibody)
61	anti-CD20 IgG1 H429A (antibody)
77	anti-CD20 IgG1 H429F (antibody)
83	anti-CD20 IgG1 H429M (antibody)
0	anti-CD20 IgG1 I253A (antibody)
96	anti-CD20 IgG1 I332A (antibody)
94	anti-CD20 IgG1 I332G (antibody)
128	anti-CD20 IgG1 I332M (antibody)
114	anti-CD20 IgG1 I332R (antibody)
100	anti-CD20 IgG1 I332T (antibody)
115	anti-CD20 IgG1 I332V (antibody)
123	anti-CD20 IgG1 I332W (antibody)
76	anti-CD20 IgG1 I377G (antibody)
167	anti-CD20 IgG1 I377K (antibody)
98	anti-CD20 IgG1 I377P (antibody)
15	anti-CD20 IgG1 K248A (antibody)
34	anti-CD20 IgG1 K248P (antibody)
38	anti-CD20 IgG1 K248Q (antibody)
162	anti-CD20 IgG1 K288N (antibody)
119	anti-CD20 IgG1 K288P (antibody)
145	anti-CD20 IgG1 K317P (antibody)
49	anti-CD20 IgG1 K317T (antibody)

FcRn pH6.0 (% of wild type)	Substance
74	anti-CD20 IgG1 K439Q (antibody)
85	anti-CD20 IgG1 L235G (antibody)
93	anti-CD20 IgG1 L235R (antibody)
85	anti-CD20 IgG1 L235S (antibody)
7	anti-CD20 IgG1 L251I (antibody)
42	anti-CD20 IgG1 L314F (antibody)
21	anti-CD20 IgG1 L314V (antibody)
5	anti-CD20 IgG1 L314W (antibody)
38	anti-CD20 IgG1 L432R (antibody)
70	anti-CD20 IgG1 L432S (antibody)
964	anti-CD20 IgG1 M252Y (antibody)
307	anti-CD20 IgG1 N286F (antibody)
71	anti-CD20 IgG1 N315R (antibody)
855	anti-CD20 IgG1 N434H (antibody)
6	anti-CD20 IgG1 N434I (antibody)
1340	anti-CD20 IgG1 N434W (antibody)
1620	anti-CD20 IgG1 N434Y (antibody)
66	anti-CD20 IgG1 P238G (antibody)
72	anti-CD20 IgG1 P238H (antibody)
94	anti-CD20 IgG1 P238I (antibody)
102	anti-CD20 IgG1 P238V (antibody)
74	anti-CD20 IgG1 P238Y (antibody)
124	anti-CD20 IgG1 P244L (antibody)

FcRn pH6.0 (% of wild type)	Substance
52	anti-CD20 IgG1 P247E (antibody)
57	anti-CD20 IgG1 P247L (antibody)
18	anti-CD20 IgG1 P247M (antibody)
26	anti-CD20 IgG1 P247Q (antibody)
81	anti-CD20 IgG1 P247S (antibody)
0	anti-CD20 IgG1 P247W (antibody)
835	anti-CD20 IgG1 P257M (antibody)
867	anti-CD20 IgG1 P257N (antibody)
96	anti-CD20 IgG1 P271T (antibody)
107	anti-CD20 IgG1 P329Y (antibody)
102	anti-CD20 IgG1 P343D (antibody)
110	anti-CD20 IgG1 P343G (antibody)
83	anti-CD20 IgG1 P343M (antibody)
105	anti-CD20 IgG1 P343N (antibody)
198	anti-CD20 IgG1 P343R (antibody)
77	anti-CD20 IgG1 P343V (antibody)
112	anti-CD20 IgG1 P343Y (antibody)
139	anti-CD20 IgG1 Q311A (antibody)
38	anti-CD20 IgG1 Q311D (antibody)
64	anti-CD20 IgG1 Q311F (antibody)
58	anti-CD20 IgG1 Q311G (antibody)
